Residue numbers refer to the chain shown, from its start.
B1: C914 (antibody, V domains shown)
VH: QVQLQESGPGLVKPSQTLSLTCTVSGGSITSGDYYWTWIRQPPGKGLEWIGYIYYSGNTYYNLSLRSRITISEDTSKNQFSLKLRSVTAADTAVYYCARAMITFGGVIVVLDYWGQGTLVTVSS
VL: QSALTQPPSASGSPGQSVTISCTGTSTDVGGYNFVSWYQQHPGKAPKLMIYEVSKRPSGVPDRFSGSKSGNTASLTVSGLQAEDEADYYCSSYAGSNILYVFGTGTKVTVL
B2: C915 (antibody, V domains shown)
VH: QVQLQESGPGLVKPSQTLSLTCTVSGGSISSGDYYWSWIRQPPGKGLEWIGYIYYSDSTYYNPSLRTRVTISVDTSKNQFSLKLTSVTAADTAVYYCARAMITFGGVIVLYDYWGQGTLVTVSS
VL: B1 VL with T27S, F34Y, S54T, D62A, N97I, I98L
B3: C920 (antibody, V domains shown)
VH: QLQLQESGPGLVKPSETLSLTCAVSGGSISNSPFYWGWIRQPPGKGLECIGSIYYSGSTYYNPSLKSRVTISVDTSKKQFSLKLSSVTAADTAVYYCARHFADGSGRVVDSWGQGILVTVSS
VL: EIVLTQSPATLSLSPGERATLSCRASQSVSSYLAWYQQKPGQAPSLLIYDVSNRATGIPARFSGSGSGTDFTLTISSLEPEDFAVYYCQQRINWPLYTFGQGTKLEIK
B4: C918 (antibody, V domains shown)
VH: QVQLVESGGGLVKPGGSLRLSCTASGFTFSDYYMTWLRQAPGKGLEWVSYISSTSPYTSYADSVKGRFTISRDNARNSVYLQMNSLRAEDTAIYYCARVPPPQRLHPFDVWGQGTMVTVSS
VL: DIQMTQSPSTLSASVGDRVTITCRASQSISSWLAWYQQKPGKAPKLLIYQASSLESGVPSRFSGSGSGTDFTLTISSLQPDDFATYYCQQYFRYSWTFGQGTKVEI
B5: C907 (antibody, V domains shown)
VH: QVQLQESGPGLVKPSETLSLTCTVSGGSITSYYWTWIRQSPGKGLEWIGYIYYIGSTNYNPSLKSRLTISLATSKNQFSLRLNSVTAADTAVYYCASYYNDTSGYSYGLDVWGQGTTVTVSS
VL: DIQMTQSPSSLSAFVGDRVTITCRAGQSISSYLHWYQQKPGKAPKLLIYATSTLQSGVPSRFSGRGSGTDFTLTISGLQPEDFATYYCQQSYSTPQTFGQGTKVEIK
B6: C908 (antibody, V domains shown)
VH: EVQLVQSGAEVKKPGESLKISCKASGYSFTIYWIGWVRQMPGKGLEWMGIIYPGESETRYSPSFQGQVTISADKSISTAYLQWRSLKASDTAMYYCARGGPPGGVKLELTDYWGQGTLVTVSS
VL: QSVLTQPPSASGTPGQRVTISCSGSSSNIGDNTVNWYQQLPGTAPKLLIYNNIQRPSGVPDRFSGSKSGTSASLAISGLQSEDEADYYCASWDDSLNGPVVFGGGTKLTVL
B7: C910 (antibody, V domains shown)
VH: QVQLVQSGAAVKKPGASVKVSCKASGYTFTSYDINWVRQAPGQGLEWMGWMNPNSGNTGFAQRFQGRATLSRDTSITTAYMELTTLRSEDTAVYYCARGRANYNSKFLLDNWGQGTLVTVSS
VL: QSALTQPASVSGSPGQSITISCTGTSSDVGSYNLVSWYQQHPGTAPKLMIYEGSKRPSGVSDRFSGYKSGNTASLTISGLQADDEADYYCCSFAGSTTRYVFGTGTRVTVL
B8: C1024 (antibody, V domains shown)
VH: QVQLVESGGGVVQPGRSLRLSCAASGFTFSDYAMHWVRQAPGKGLEWVAMISYDGNSQYYADSVKGRFTISRDNSKNTLYLQMNILRPEDTAVYYCARTFSIRIGHHDYWGQGTLVTVSS
VL: NFMLTQPHSVSESPGKTVTISCTGSSGSIASNYVHWYQQRPGSAPTTVIFEDNQRPSGVPDRFSGSIDSSSNSASLTISGLKTEDEADYYCQSYDSSSFWVFGGGTKLTVL
B9: C903 (antibody, V domains shown)
VH: EVQLVESGGGLIQPGGSLRLSCAASGFIVSRNYMSWVRQAPGKGLEWVSIIYSGGSTFYADSVKGRFTISRDNSKNTVYLQMNSLRAEDTAVYYCARDYGDFYFDYWGQGTLVTVSS
VL: EIVLTQSPGTLSLSPGERATLSCRASQSVSSSYLAWYQQKPGQAPRLLIFDVSSRATGIPDRFSGSGSGTDFTLTISRLEPEDFAVYYCQQYGSSPRTFGQGTKVEIK
B10: C904 (antibody, V domains shown)
VH: QVQLQQWGAGLLKPSETLSLTCAVNGGSLSLYYWSWIRQSPGKGLEWIGEINHFGGSDYKPSLKSRVSISVDTSTNQFSLKLSSVTAADTAVYYCARKPLLHSNISPGAFDIWGQGTMVTVSS
VL: EIVLTQSPGTLSLSPGERATLSCRASQSVAGSYLAWYQQKPGQAPRLLIYGASSRATGVPDRISGSGSGTDFTLTISRLEPEDFAVYYCQQYTNTPRTFGGGTKVEI
B11: C911 (antibody, V domains shown)
VH: QVQLVESGGGVVQPGGSLRLSCAASAFTFSSYAMHWIRQSPGKGLEWVAVISSDGSSKFYADSVKGRFTISRDNSKNTLYLQMNSLSAEDTAVYYCARDLENVLIEVALQDWGQGTLVTVSS
VL: DIQMTQSPSSLSASVGDRVTITCRASQSINSYLNWYQQKPGKAPKLLIYAASSLHSGVPSRFSGSGSGTDFTLTISSLQPEDFATYYCQQSYTTLALTFGGGTKVEIK
B12: C905 (antibody, V domains shown)
VH: QVQLQESGPGLVTPSQTLSLTCSVSGGSIHSRDFYWGWIRQHPGKGLEWIGHIYYTGNTYYNPSLKSRVTISADTSKNQFSLKLSSVTAADTAVYYCARATVVITLHWFDPWGQGTLVTVSS
VL: NFMLTQPHSVSESPGKTVTISCTGSGGSIASNYVQWYQQRPGSAPTTVIYEDNERPSGVPDRFSGSIDSSSNSASLTISGVKTEDEADYFCQSYDVGNPVIFGGGTKLTVL
B13: C912 (antibody, V domains shown)
VH: QVQLVESGGGVVQPGRSLRLSCAASGFSFSTYTMHWVRQTPDKGLEWVAVISDDGKNKYYADSMKGRFTISRDNSKNTLYLQMSSLRPEDTAVYYCARDLENVMIEVALESWGQGTLVTVSS
VL: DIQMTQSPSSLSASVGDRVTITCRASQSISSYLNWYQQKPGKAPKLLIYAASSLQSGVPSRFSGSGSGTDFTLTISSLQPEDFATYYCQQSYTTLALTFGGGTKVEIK
B14: C916 (antibody, V domains shown)
VH: EVQLVESGGGLVQPGGSLRLSCAASGFTFSNYDMHWVRQATGRGLEWVSTIGTAGDTYYPGSVKGRFTISRENAKNSLYLQMNSLRAGDTALYYCARVRYDSSGYFWSLDYWGQGTLVTVSS
VL: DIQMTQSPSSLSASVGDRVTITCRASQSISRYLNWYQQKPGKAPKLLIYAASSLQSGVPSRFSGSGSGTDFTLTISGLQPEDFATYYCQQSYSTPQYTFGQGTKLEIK
B15: C917 (antibody, V domains shown)
VH: B14 VH with R43K, E46D, L92V, Y100F, S102T
VL: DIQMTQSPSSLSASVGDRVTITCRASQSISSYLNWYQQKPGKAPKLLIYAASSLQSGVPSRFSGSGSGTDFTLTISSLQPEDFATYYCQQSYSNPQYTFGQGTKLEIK
B16: C913 (antibody, V domains shown)
VH: EVQLVESGGVVVQPGGSLRLSCAASGFTFDDYSMHWVRQVPGKGLEWIAVIFWDGTSTYYADSVKGRFTISRDNSKKSLYLQMNSLRSEDTALYYCAKDSEDCSSTSCYVDHWGQGTLVTVSS
VL: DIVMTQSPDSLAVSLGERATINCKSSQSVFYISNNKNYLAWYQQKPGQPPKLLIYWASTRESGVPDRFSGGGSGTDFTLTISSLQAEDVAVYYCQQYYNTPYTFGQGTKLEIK
B17: C909 (antibody, V domains shown)
VH: QVQLVQSGAEVKKPGASVKVSCRASGYTFPNYDLNWVRQATGQGLEWMGWMNPNSGNTGYAQKFQGRITMTRITSISTAYMELSSLRSEDTAVYYCARGRANWNSNFLLDSWGQGTLVTVSS
VL: QSALTQPASVSGSPGQSITISCTGTSSDVGGYNLVSWYQQYPGNVPKLMIYEDAKRPSGVSNRFSGSKSANTASLTISGLQAEDEADYYCCSYAGSSTRYVFGTGTKVTVL
B18: C906 (antibody, V domains shown)
VH: EVQLVESGGGLIKPGRSLRLSCTASGFTFGDYAMTWFRQAPGKGLEWVGFIRSKAYGGTTGYAASVKYRFTISRDDSKSIVYLQMDSLKTEDTAVYYCTRWDGWSQHDYWGQGTLVTVSS
VL: DIVMTQSPLSLSVTPGEPASISCRSSQSLLHSNGINYFDWYLQKPGQSPQLLIYLGSNRASGVPDRFSGSGSGTDFTLKISRVEAEDVGVYYCMQVLQIPYTFGQGTKLEI

molecular target: T1, SARS-COV-2 RBD (SARS-COV-2, UniProt P0DTC2 319-539); experiment: ELISA, RBD coated on plate
T1 construct: also called WT RBD

| Binder | EC50 |
| --- | --- |
| B1 | 1.59 ng/mL |
| B2 | 3.49 ng/mL |
| B3 | 2.35 ng/mL |
| B4 | 1.78 ng/mL |
| B5 | 3.71 ng/mL |
| B6 | 1.27 ng/mL |
| B7 | 2.47 ng/mL |
| B8 | 2.37 ng/mL |
| B9 | 2.54 ng/mL |
| B10 | 3.31 ng/mL |
| B11 | 2.36 ng/mL |
| B12 | 3.06 ng/mL |
| B13 | 2.45 ng/mL |
| B14 | 1.97 ng/mL |
| B15 | 1.05 ng/mL |
| B16 | 2.58 ng/mL |
| B17 | 3.24 ng/mL |
| B18 | 1.07 ng/mL |

Reference: patent US20240218057A1 (ROCKEFELLER UNIVERSITY, published 2024)
